Experiment: soluble on expression in E. coli; label from the status in PepcDB or PDB records

Row | Sequence | soluble on expression in E. coli
1 | MKRTIQETPGPSSTTVPPPKKLNSQRNGSNLEPGSIYFTPIGGISVPRQESESSRSLDEILADIRPINSLHFSFMLDFEFLIGSYPPSLREYPITLVVGAPDAPDLLKCTKNQKLVTVVGASLPIPFGTHHTKMSILEDEDGRFHVIVSTANLVPDDWEFKTQQFYYNFGVKIASGTVPRSDFQDDLLEYLSMYRNQLDTWKQLLQKVDFSQISDRLIFSTPGYHTDPPTQRPGHPRLFRILSEKFPFDASYEHTERCTFVAQCSSIGSLGSAPINWFRGQFLQSLEGANPSPKQKPAKMYLVFPSVEDVRTSCQGYAGGCSVPYRNSVHARQKWLQGNMCKWRSNAKRRTNAVPHCKTYVKYDKKVAIWQLLTSANLSKAAWGEVSFNKSKNVEQLMIRSWEMGVLITDPSRFNIPFDYPLVPYSATDEPFVTDKKHEKPDILGCIWTPP | not soluble
2 | MNSSTANKQKGIQLIPFTVDKVVEQVNEIPPGVQLIHAPQVWEKSAKGKDIVVAVLDTGCDMNHIDLKDRIIGGRNFTKDYEGDPNIYLDNNGHGTHVAGTIAATENGVGVLGVAPLAKMLVLKVLAGDGSGSYEQIIEAIHYAVNWRGPNKERVRVISMSLGGPQDVPELHEAIQNAVKQDVLVVCAAGNNGDCNDNTEELDFPGAYSEVIEVGAVNLERKIACFSNSNQEIDLVAPGDEILSTYPEGKYAVLSGTSMATPHVAGALALLIKQCEREYGRKLSEPEIYAQLIKRTVPLGYERTSEGNGLIDLLKE | not soluble
3 | MSLNKESLKEYLSSRYQGWSSFLNNVIFPIFGEDDFEDGFETELLESQPERRQLAEATGIRSIKQVGMMYVGVEPLQIFDVTVSDRVMMEHNRVNIQRLIRAVMDQFSCAFMLFHYEDDTRWDWRFTYCRKSGNKEESTDSKRYTFLLGPGQSCRTATDNFIALYDKRNSLEIKDIENAFNVEALSKEFFGKYKAQYEAFVNYMVDPTNGMRQHFIDTGFDHTGMAADKIRDREEKPIRDYVKKLLGRIVFLHFLQKKGWLGVPASKEWGEGDRDFMLNIFKNANERQKENFLDDILEDLFTEGLDRNRSDQGDLYDTKVEGFRNCRIPYLNGGLFERDILDKKPSHFPASYFNGLLTMLSQYNFTIDENDPNDAEVGVDPEMLGRIFENLLEDNKDKGAFYTPKEIVQYMCRESLIAYLQTDMREEDKECIRQFVTTHDASQLGELKEYIDQKLYDVKICDPAIGSGAFPMGLLRELFFCRSAIEPNIVENAANIKRHIIQNNIYGVDIERGAVDIARLRFWLSLIVDEKSPEALPNLDFKIMQGNSLLEQYKGVDLSTEGHHHHHH | soluble
4 | MGSDKIHHHHHHMSSNQIAIKVTNLSKCYQIYSQPWDRLKQFFAPKIKSVIRRESRSYFKEFWALRDVSFSINRGETVGIIGRNGAGKSTLLQMICGTLTPTVGDIEVNGRVAALLELGAGFNPEFSGRDNVYLNGSVLGLSKSEIDKKFQEILDFADIGDFIDQPVKTYSSGMYVRLAFAVQACIDPEILIVDEALAVGDIGFQYKCFKRMEMLKQKGTTIIMVTHSTGSILEYADRCLVMSDGMLVGNTTDVLAAVLAYEKGMLMTERTDTAEKKEAVSQTGEIASADELSAIQNTQTNAEVDEKRFGSGRAIIEDFSIMKADGTPLSEKPLVKPNEEIYFSFKLNSSENINDVVLGVSLSRTQGGDIWGDNNIFAGHKIDLAPGLRKLKYKVKLPINTGDYLVHCGLACFNNGEREELDQRRPIAKVKFWSSRELGGVIHSPVNVIEGDELS | not soluble
5 | MTTTGIIAEFNPFHNGHKYLLDQAHGLKIVAMSGNFVQRGEPAIIDKWTRAQMALENGADLVVELPFLVAVQSADYFASGAVDILAKLGIDTLAFGTETALDYNGLSTIYGKMAEQMSEFLTTLPEKLSYPQKTQLMWEKFAGVQFTGDTPNHILALAYAKACAGRNIRLRPIQRRGADYHSTEKTVAYASATSLRHHRQDPAFVAKSMPNANLFQTSPQVTWEDYFTLLQYQVLTQPDLTQLFQVNEELAIRIKKAIRQVTSFDQLVETVATKRYTKARVRRILIYILIGARETSLPQDVHILGFTAAGRTHLSHIKNKTRIISRIGSQPWDALTQQADQVYQLGNPKIAEQTWGRVPI | not soluble
6 | MIFMNMVNRERELQALKKRLSSNDLELIIIYGRRRIGKTFLIINAVNGYDFIYYLATEKNNLRKFKELTESKYEDIKYVKEDWEAIFHYLRDKIIIIDEFPYMIKEDESILSTFQKIVDETLKGSKTKLILLGSSISMMEDAISYKSPLYGRRTASIELKELKFKDLKGFNFSLIDAIHVYGFAGGVPFYLTKAKTPFLKWINAELKEVDSFIKDEIDFMLRYEFSEIGTYKEILHAISSGKNTLGEIKDFVRISGDVSSYLNKLEKIGIIGKEFPYKMKKGARYYIKDNFTLFWFTFIYPNLSLIEEGIYEIKEDEYNVYLGRIFEKIAREYVEDVYKVKVERLWFKDVEIDIYGDGIAGECKWSEGINGEKVLYELKRKVEDLGLDVKKYIIFAKSFSKTNEEAEFIDLKKLEQWYRTLEHHHHHH | soluble
7 | MKFGIVARRDKEEALKLAYRVYDFLKVHGYEVVVDKETYEHFPHFKEGDVIPLDEFDVDFIVAIGGDGTILRIEHMTKKDIPILSINMGTLGFLTEVEPSDTFFALNRLIEGEYYIDERIKVRTYIDGENRVPDALNEVAILTGIPGKIIHMKYYVDGGLADEVRADGLVVSTPTGSTGYAMSAGGPFIDPRLDVILIAPLLPLPKTSVPMVIPGSSRIDIRMLTDREIILAIDGQYYEHLPPNVEITVVKSPRKTKFIRFTREIYPKYTIRIKERHMAGDPLEHHHHHH | not soluble
8 | MNFISLSIFSEHLKSLFPFFTPNPFLNANVAVNDDVSSPNSSVTANYGHGTRACYTHRMGRFLSPKKAFFRFSLIN | not soluble
9 | MKDSLQTIGVFVRPTHYQNPLFEKLEQAKEWVLKLLEDEGFESFMIDSLDGAKDARLIEKADAFLCLGGDGTILGALRMTHSYNKPCFGVRIGNLGFLSAVELNGLKDFLQDFKQDRIKLEEHLALEGRIGKTSFYAINEIVIAKKKALGVLDIKAYAGHTPFNTYKGDGLIIATPLGSTAYNLSAHGPIVHALSQSYILTPLCDFSLTQRPLVLGAEFCLNFCAHEDALVVIDGQATYDLKANQPLYIQKSPTTTKLLQKNSRDYFKVLKEKLLWGESPSKKRLEHHHHHH | soluble
10 | MKMQTYYYVLASRRFLLQEEPIEEVLKERTRHYHEQEKEIDFWLVPQPAFLEAPEFADIKAKCPQPAAAIISTNSQFITWLKLRLEYVVTGEFSAPSETIPNPLASLATASLEHHHHHH | soluble
11 | AIARPSSLRQYLDSVPLPPCQEQQPKASAELDHKACYLCHSLLMLAGVVVSCQDITPDQWGELQLLCMQLDRHISTQIRESPQAMHRTMLKDLATQTYIRWQELLTHCQPQAQYFSPWKDI | soluble
12 | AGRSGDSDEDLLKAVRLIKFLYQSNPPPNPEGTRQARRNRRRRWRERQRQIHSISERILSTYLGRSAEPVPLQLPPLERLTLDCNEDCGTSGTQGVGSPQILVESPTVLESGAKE | soluble
13 | SNAHKGTLYVVATPLGNLDDMTFRAVNTLRNAGAIACEDTRRTSILLKHFGIEGKRLVSYHSFNEERAVRQVIELLEEGSDVALVTDAGTPAISDPGYTMASAAHAAGLPVVPVPGA | soluble
14 | MGHHHHHHSHMDALEGESFALSFSSASDAEFDAVVGYLEDIIMDDEFQLLQRNFMDKYYLEFEDTEENKLIYTPIFNEYISLVEKYIEEQLLQRIPEFNMAAFTTTLQHHKDEVAGDIFDMLLTFTDFLAFKEMFLDYRAEKEGRGLDLSSGLVVTSLCKSSSLPASQNNLRH | soluble
15 | MSLVLPSGAFTLKNVTVPAAIFGQRGDLISTDIGIVDGQISAPGGKVIEMAEAMVLPAFVDCHTHLDKGHILPRAQNPDGTFVGALTSVREDHLNWTSKDVRTRADFSIRCAYAHGTRAIRTHVDSMNGQYKRSWPVFAGLREKWANKVELQMTSLITCESYGMPEYAEIAATVAHFDGVLGMVSFPMPDLKKVLLSHFETAGNLGLALDFHTDETMDPSSETLRVIAECVMETGFCGRVLVGHCCSLSQQEENLAMDTLDLVAKAKIDVVSLPMCNLYLQDRHAGRTPRGRGVTLVHEMKARGINVSFASDNTRDPFYAYGDMDMLEVMRMATRIAHLDHSDFDWVKSFSQTPAEVCDFPDLSLAHGTTADLVIFNARNWNELYSRPQSDRIVLRNGIAIDRKLPSYSELDALLEAYKEGHHHHHH | soluble
16 | MSNSQAGPGASVRRVLAVIPARGGSKGVPAKNLAPVGGVPLVVRAVRECLAARLVTDVVVSTDDQAIAAAAREAGAEVVLRPAAIAGDTATSEAAVLHAMDAHEALHGAAVDVVLLVQCTSPFLVREDVDGVAGAVVEDGADTAVTVAPFHGFVWRDGADEPGGADGGHGVNHDKAYRPRRQDRPQDLLETGAAYAMAAPGFRKHRHRFFGRTDLVRTDPARVLEIDDPHDLARARALAPHFDTARPGALPTAADIDAVVLDFDGTQTDDRVLIDTDGREFVSVHRGDGLGIAALRRSGLTMLILSTEVNPVVAARARKLKLPVLHGIDRKDLALKQWCEEQGIAPERVLYVGNDVNDLPCFALVGWPVAVASAHDAVRGAARAVTTVPGGEGAVREIAAWLLGPSLDALGPASETTPTLTQSKLEHHHHHH | soluble
17 | MGSDKIHHHHHHAKTTTATTTQASVKKQTYTILSSSFYKTAKTYHTKDAKPVVYKAVMGADRPTMTLTAKGKLKAGTTYKVTKQVKVKINAKKSQKYSYVKGQGWVVSSKLTAGKFKAASGVKKTATKYTIVSVTALKKAKTVHTKDARPVVYKAAVAADRPTMTLTTNGKLKAATTYKVTKQAKLKNAAKKTVAFSYVSGHGWVLQRDLTNGQFMNAD | not soluble
18 | LENDRTTFRIRNLDSGEIIWSGMGAVYPVYSPSFDHAADAFAFAFSSPADPPEIHLLRDAETKSSINSHLDGVSPYPAEIVEWKAKDGEDLYGILRLIDPKNPLIVYIHGGPTSFSYASFLDRTSIYLGYGFNVFAPNYRGSVGKGRRYAELNVGDLGGKDFDDVISGIEFLKNTGKIATDRIYITGGSYGGYMSALAVMKTDIFRASVSLFGISDWVSFHGVSNLHLWDRLHMDADPWAFKKYDEYSPIRIMHEPKTPTLLMHGIKDPYVPIGQYYEFYRFLKEKNCEVRMIVFPREGHGFTEKEHIRRQYMETIRFMKDH | not soluble
19 | MLSRHINYFLAVAEHGSFTRAASALHVSQPALSQQIRQLEESLGVPLFDRSGRTIRLTDAGEVWRQYASRALQELGAGKRAIHDVADLTRGSLRIAVTPTFTSYFIGPLMADFYARYPSITLQLQEMSQEKIEDMLCRDELDVGIAFAPVHSPELEAIPLLTESLALVVAQHHPLAVHEQVALSRLHDEKLVLLSAEFATREQIDHYCEKAGLHPQVVIEANSISAVLELIRRTSLSTLLPAAIATQHDGLKAISLAPPLLERTAVLLRRKNSWQTAAAKAFLHMALDKCAVVGGNESR | not soluble
20 | MSLDTMWFRNIDNFINEINRFALLGTVTNKNGWLINNGIYYAGRLGKLHSTPTKGQQVVTDAMRIYPYLGEQYFVAAEQITTNYGGIDANGKTVNLDQIREEGKKKYLPKTYTFDDGAIVFKAGDKVSEEKIKRLYWAAKEVRSQFYRTVGSDKPLEKWTCEGHHHHHH | not soluble
21 | MAPDRSGGPAAAELIAGLGLERHPEGGWYRETYRAAGTIPGTLLPGQVGGERSFSTAIYFLLERGDISALHRIRSDELWHFHAGAPLIVHVITPAGGSYALTLGSDPASGETFQAVVPAGCWFGAETTGDYSLVGCTVAPGFDFADFEMGSRADLLGRFPTHAGIIRRLTRDGDLEHHHHHH | not soluble

— the DeepSol protein solubility set
